Drawing on publication doi:10.1101/2023.10.09.561567 (bioRxiv, 2023), this text covers IC50 and Kd for four molecules.

Experiment [1] deals with IL-33 released from CMT-64 cells (mouse (endogenous in CMT-64)) (UniProt Q8BVZ5). Nature of the experiment: ELISA.
In experiment [2] the target is HpARI1 (Heligmosomoides polygyrus bakeri). Put plainly: SPR. For orientation: SPR reads the build-up and loss of mass on a sensor chip optically.
In experiment [3] the target is HpARI3 (Heligmosomoides polygyrus bakeri). Put plainly: SPR.
Experiment [4] deals with HpARI2 (Heligmosomoides polygyrus bakeri). Nature of the experiment: SPR.
Experiment [5] has as its target T1, IL-33 released from CMT-64 cells (mouse (endogenous in CMT-64), UniProt Q8BVZ5 1-266).
T1 sequence (looked up): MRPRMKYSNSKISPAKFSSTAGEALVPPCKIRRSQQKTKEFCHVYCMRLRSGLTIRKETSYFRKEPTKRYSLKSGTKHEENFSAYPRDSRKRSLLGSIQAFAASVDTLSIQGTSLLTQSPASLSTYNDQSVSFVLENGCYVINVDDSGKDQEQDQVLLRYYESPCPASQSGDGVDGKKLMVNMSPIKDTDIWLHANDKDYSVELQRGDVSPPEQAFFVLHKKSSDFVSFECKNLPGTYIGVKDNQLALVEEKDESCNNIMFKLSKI
Nature of the experiment: ELISA.

As to HpARI1 (natural protein), in experiment [1], the half-inhibitory concentration (IC50) was found to be 0.8 nM.
The same measure, in the same setting: the figure for HpARI2 (natural protein) is 0.8 nM.
Take “mouse IL-33 (purified) (from UniProt Q8BVZ5 1-266) (ligand)”: the Kd was found to be 0.04 nM in experiment [2], 0.4 nM in experiment [3] and 0.04 nM in experiment [4].

B1: HpARI3 (natural protein, Heligmosomoides polygyrus bakeri, UniProt A0A183GRJ4 1-248, looked up)
chain: SLGCKFTDVEKDKGYTGMLVGGKRRESAANGQKVELVCGRGNHNYTCKSGILTEESYRQGRCGCEGILQMLLDKPKDSPMYDSVTYDPTPNTPTTVGKDGIWNGVDYRNGSTVRPYCDTGPIINGSPKAVCVSGKWVPKLGDCPKMCSISSLKENGKFLNVTATTTGDELNPRPREQTLIPIVRKVDKDKVQHGVKVVALCKAKYSTTAAENVQKFECDNGKWKPKPVPCS
modifications: chemically biotinylated with EZ-Link Sulfo-NHS-Biotin (for SPR only)
For B1, the IC50 in experiment [5] was roughly 6 nM.

The term IC50 denotes the point on the concentration scale where inhibition reaches its midpoint. Broadly, the Kd is the concentration at which binding is half-saturated. Lower therefore signals higher affinity.
